# In patent US20220409696A1, “Heparin-Associated Polypeptides and Uses Thereof” (Juvena Therapeutics, Inc., priority 2021, published 2022):
# Test system: DM1 human myoblast
# Test: Gene expression fold change in DM1 human myoblast
# Type: cell-based
# Details: 48 h; BMP7 50 ng/mL, Butyrate 100 nM, IGF2 200 ng/mL
# Method: Myoblasts were cultured 48 h in the presence of factors (BMP7 50 ng/mL, Butyrate 100 nM, IGF2 200 ng/mL).
# Myoblasts were cultured 96 h in the presence of factors (IGF2 200 ng/mL). […] Myoblasts were cultured 48 h in the presence of factors (IGF2 200 ng/mL).
# RNA was isolated from each well (RNeasy Mini Kit, Qiagen) and cDNA was obtained by reverse-transcription (High Capacity Reverse Transcription Kit, Thermo Fisher Scientific). Real-time quantitative PCR was performed using QuantStudio3 (Thermo Fisher).
# IGF2 was tested individually for its ability to promote proliferation and/or fusion of human muscle progenitor cells from an individual with myotonic dystrophy type 1 (hMD)—a muscular dystrophy caused by mutations in the DMPK1 gene. The effect of IGF2 on myogenic activity was assayed in biological triplicate across a range of concentrations centered around expected physiological levels by adding each factor to hMD myoblasts for 72 hours with daily media changes (DMEM+2% horse serum) and a second pulse of factors at the first media change. After 72 or 96 hours, cells were pulsed for 2-5 hours with EdU (30 uM), ethanol fixed, stained with Hoescht 3342, immunostained for proliferation—as measured by the percent of cells staining positive for EdU (% EdU)-, and immunostained for differentiation—as measured by the increase in cellular area staining positive for embryonic myosin heavy chain (% eMyHC) relative to the negative controls, which received media and vehicle only. Wells were imaged on a Keyence BZ-100 at 4×, the images quantified in Cell Profiler, and the statistics were computed in R. Additionally, RNA was extracted from myoblast and select transcript abundances quantified by qPCR.
molecule,measurement,value
"BMP7: factor BMP7 added at 50 ng/mL to DM1 human myoblasts (protein, UniProt P18075 293-431, looked up) Bone morphogenetic protein 7: STGSKQRSQNRSKTPKNQEALRMANVAENSSSDQRQACKKHELYVSFRDLGWQDWIIAPEGYAAYYCEGECAFPLNSYMNATNHAIVQTLVHFINPETVPKPCCAPTQLNAISVLYFDDSSNVILKKYRNMVVRACGCH",MYF5 myogenic gene expression fold change compared to FM (vehicle),0.709
same,MYODI myogenic gene expression fold change compared to FM (vehicle),0.709
same,MYOG myogenic gene expression fold change compared to FM (vehicle),0.361
